Here are results for 1 molecule from patent publication US7795390B2, “Biological substance nesfatin and its related substances and uses thereof” (Teijin Pharma Limited, priority 2005, dated 2010).

Assay type in all cases: in vivo, rat
Assay [1] concerns Wistar rats. The experiment in a line: Administration of nesfatin-1, nesfatin-2, nesfatin-3, nesfatin-2/3 into the third ventricle, amount of food intake. The procedure:
Samples used for intracerebral administration were PBS alone (vehicle group), or nesfatin-1, nesfatin-2, nesfatin-3 or nesfatin-2/3 prepared in Working Example 10 each dissolved in PBS, and 25 pmol was administered per individual into the third ventricle immediately before the dark period. Rats used were Wistar rats (purchased from Nippon SLC) and were housed as in Working Example 6, and among 8-9 week-old male Wistar rats, those individuals weighing 200-250 g were selected and used (N=5). The technique of intraventricular administration and the measurement of the amount of food intake in rats were carried out in a method similar to those in Working Example 6. In the measurement of the amount of food intake, the reduced amount of food at 1 hour after administration (0-1 hr) and 2 hours after administration (1-3 hrs) was determined as food intake.
In the same condition above, 1, 5 or 25 pmol of nesfatin-1 as a sample was administered per rat individual into the third ventricle immediately before the dark period. In this experiment, the amount of food intake was determined at 1 hour after administration (0-1 hr).
The experimental condition was similar to that in Working Example 12, and 5 pmol of nesfatin-1 was administered into the third ventricle of the rat brain immediately before the start of the dark period, the amount decreased of the food (the amount of food intake) during 1 hour immediately after administration (0-1 hr), during 2 hours from 1 hour after the administration (1-3 hr), during 3 hours from 3 hours after the administration (3-6 hr), and during 6 hours from 6 hours after the administration (6-12 hr) was measured as the amount of food intake. As the control group, the amount of food intake by individuals that received physiological saline alone was measured.
The experimental condition was similar to that in Working Example 12, and for a group that received 5 pmol of nesfatin-1 alone into the third ventricle of the rat brain immediately before the start of the dark period and a group that received 5 pmol of nesfatin-1 and 8 μg of anti-nesfatin-1 antibody (nesfatin-1 IgG), the amount of food intake for 1 hour after administration was measured and compared to that for the control group (physiological saline alone was administered). Also, for a group that received only leptin (Rat leptin: R & D Systems, 598-LP-01M) (1 μg) which is known to have an activity of suppressing food intake by intraventricular administration and a group that received leptin and anti-nesfatin-1 antibody, its effect on food intake was also studied.

The next assay deals with Zucker +/+ (Lean) rats. The assay is described as follows: nesfatin-1 administration into the third ventricle of Zucker +/+ (Lean) rats, food intake. As to conditions: recombinant mouse nesfatin-1 5 pmol. The procedure:
As rats, 8 week-old male Zucker fa/fa (Zucker) rats and Zucker +/+(Lean) rats as the control animal were purchased from Nippon Charles River, and were housed in a cycle of 12 hours of the light period from 6 a.m. to 6 p.m. and 12 hours of the dark period from 6 p.m. to 6 a.m. the next morning and fed a powder food (Nippon Clea, CE-2), and kept at 22° C., and throughout the experiment period, a similar condition was continued in housing. After preliminary housing of the purchased rats for over one week, individuals weighing 200-250 g were selected from among 9 to 10 week-old individuals.
The sample used for administration was one in which the recombinant mouse nesfatin-1 prepared in Working Example 16 was dissolved to 5 pmol in 5 μl of PBS, and as the control sample physiological saline (Saline) was used. Five μl of the samples prepared were administered into the third ventricle of each rat for the group of five each of Zucker rats and the Lean rats per group (the Zucker/nesfatin-1 group, the Lean/nesfatin-1 group, the Zucker/Saline group, the Lean/Saline group). […]
After intraventricular administration, the amount of food intake was determined by measuring the amount decreased of the powder food for each rat during 0-1 hour, 1-3 hours and 3-6 hours. […]

The test system of assay [2] is Wistar rats. The assay is described as follows: Intraventricular continuous administration of nesfatin-1 by osmotic pump, food intake and body weight. The procedure: The administration of nesfatin-1 was carried out into the ventricle by an osmotic pump for 10 consecutive days. Among 8 week-old male Wistar rats (purchased from Nippon SLC), those individuals weighing 200-250 g were used. The rats received intraperitoneal administration of 40 mg/kg body weight of pentobarbital sodium for anesthesia. After the hair was removed from the head, they were fixed in a brain stereotaxic apparatus (David Kopf Instruments, Model 962) and the scalp was incised and a 23G needle (guide cannula) was implanted so that the tip reaches the third ventricle (2.5 mm behind the bregma, 9.5 mm from the surface). One week after implanting the guide cannula, the animals were subjected to the experiment. The osmotic pump used was Alzet's Model 2002. Nesfatin-1 (nesfatin-1 administration group) dissolved in physiological saline that was filter-sterilized with a 0.22 μm Millex GV filter (Millpore Co. Ltd.), or sterilized physiological saline alone (control group) were injected into the osmotic pump immediately before use, and were primed in sterilized physiological saline from the day before use. The osmotic pump to which each sample was connected to a tube connected to the injection cannula, and through the guide cannula previously implanted the injection cannula was fixed so that the tip of the cannula reaches the third ventricle of the rat. In this form of use, the sample is injected to the third ventricle at a flow rate of 12 μl per 24 hours, and in the nesfatin-1 administration group, it is equivalent to 5 pmol of nesfatin-1 per day administered to the ventricle. […] The measurement of the amount of food intake started from the day after the cannula and the osmotic pump were implanted, and the weight of the residual food was measured at 9 a.m. every day, and by determining the difference from the weight of the food on the previous day, the amount of food intake of the day (24 hours) was calculated. From day 6 after the start of administration, body weight was measured at the time of measuring the amount of food intake, and changes in body weight were also recorded.

[3] abbreviates: 5 pmol per day, osmotic pump, third ventricle, 10 consecutive days, vs saline.

B1: nesfatin-1: 82-residue peptide, amino acid Nos. 25 to 106 of nesfatin (SEQ ID NO: 15), solid-phase synthesis (peptide, listed as Rattus norvegicus)
chain: VPIDVDKTKVHNVEPVESARIEPPDTGLYYDEYLKQVIEVLETDPHFREKLQKADIEEIRSGRLSQELDLVSHKVRTRLDEL
On to B1, for which the “amount of food intake” value in the assay with Wistar rats [1] (5 pmol into the third ventricle, 0-1 hr, 1-3 hr and 3-6 hr, p<0.01 vs control) was “Significant decreases in the amount of food intake”; in the assay with Wistar rats [1] (5 pmol into the third ventricle, 6-12 hr, p<0.01 vs control), “an increase in the amount of food intake”; in the assay with Wistar rats [1] (5 pmol or 25 pmol intraventricular, 0-1 hr), “significant decreased amount of food intake”; in the assay on Wistar rats [1] (25 pmol into the third ventricle before dark period, 0-1 hr and 1-3 hr, vs control), “marked effect on the suppression of feeding”; in the assay with Wistar rats [1] (1, 5 or 25 pmol per rat intraventricular, 0-1 hr, vs saline), “decreased amount of food intake, with the increased amount of the administered nesfatin-1”; with Zucker +/+ (Lean) rats (0-1 hour and 1-3 hours, P<0.001 vs Saline), “decreased”. Besides, the “amount of food intake” value in the assay on Zucker +/+ (Lean) rats (3-6 hours) is “No difference”. The “amount of food intake of the day (24 hours)” value with Wistar rats [2] (setting [3]) is “a decrease in the amount of food intake was noted from day 1”. In addition, the “rate of increase in body weight” value with Wistar rats [2] (setting [3]) is “significantly declined”. For the same molecule, the “food intake and/or body weight gain” value with Wistar rats [2] (recombinant highly purified nesfatin-1 (Working Example 16), intraventricular as in Working Example 13) was “the effect of suppressing food intake and/or suppressing body weight gain was noted”.
